Experimental data from patent publication US20110117625, “Engineered Nucleases and Their Uses for Nucleic Acid Assembly” (published 2011).

Columns and labels:
[1] = biological target: T1, Sce7 (I-SceI D44N/D145A, non-cleaving) (UniProt P03882 P03882:1-235, D44N,D145A); test: EMSA; 20 mM Tris pH 9.0, 25 mM NaCl, 10 mM CaCl2, 37 C; conditions: tags: 6xHis N-terminal with TEV site
T1 sequence: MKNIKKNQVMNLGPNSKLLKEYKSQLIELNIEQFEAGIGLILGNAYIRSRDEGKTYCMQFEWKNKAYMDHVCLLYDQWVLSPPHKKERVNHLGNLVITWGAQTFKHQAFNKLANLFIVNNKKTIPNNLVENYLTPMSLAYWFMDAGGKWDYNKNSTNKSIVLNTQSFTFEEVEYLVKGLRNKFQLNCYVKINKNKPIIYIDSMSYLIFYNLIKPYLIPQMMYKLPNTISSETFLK
Procedure: The binding affinities for the I-SceI recognition sites were determined using a gel-shift assay and are depicted in Table 3.
To measure the dissociation constants, the binding protein of interest, at a range of concentrations between 2 and 400 nM, was incubated with 10 nM DNA substrate in 20 ìL of 20 mM Tris.HCl, pH 9.0, 25 mM NaCl, 10 mM CaCl2, 1 mM DTT, 2% glycerol, and 0.1 mg/mL BSA, for 20 minutes at 37° C. (Sce7 and CdnDI) or 42° C. (CdnDII). Two ìL of 10′ loading buffer were added to each sample, and 10 ìL of each mixture were loaded onto 6% polyacrylamide DNA retardation gels (Invitrogen), and run for 30 minutes at 175 V. The gels were stained with SYBR Gold (Invitrogen) and visualized with ultraviolet light. DNA-containing bands were quantified by densitometry as described above. Concentrations of bound and free protein were calculated from the input amount of DNA and from ratios of band intensities, and the data were fit using Origin software (Originlab, Northampton, Mass.) to the following equation: […]

I-SceI (wild type) = biological target: T2, I-SceI (wild type) (UniProt P03882 P03882:1-235); test: EMSA; 20 mM Tris pH 9.0, 25 mM NaCl, 10 mM CaCl2, 37 C?; conditions: tags: 6xHis N-terminal with TEV site (as for variants)
T2 sequence: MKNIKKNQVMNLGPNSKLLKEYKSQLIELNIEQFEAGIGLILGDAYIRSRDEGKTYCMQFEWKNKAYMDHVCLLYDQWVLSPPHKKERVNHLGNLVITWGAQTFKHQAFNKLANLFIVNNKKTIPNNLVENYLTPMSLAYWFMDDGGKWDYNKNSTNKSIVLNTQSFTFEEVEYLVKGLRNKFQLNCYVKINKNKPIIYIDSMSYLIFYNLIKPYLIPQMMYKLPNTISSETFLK

I-CreI D20N/Q47A = biological target: T3, I-CreI D20N/Q47A (UniProt P05725 P05725:1-163, D20N,Q47A); test: EMSA; 5 nM DNA, 20 mM Tris pH 9.0, 37 C; printed D2ON; conditions: tags: 6xHis N-terminal with TEV site; chain copies: 2; EcoRI/BamHI overhangs
T3 sequence: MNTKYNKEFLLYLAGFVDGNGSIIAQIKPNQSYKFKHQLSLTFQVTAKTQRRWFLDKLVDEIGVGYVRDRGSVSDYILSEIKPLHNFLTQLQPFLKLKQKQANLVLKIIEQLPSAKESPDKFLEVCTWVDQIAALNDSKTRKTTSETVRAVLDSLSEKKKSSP
Procedure: (§1) Various concentrations of I-SceI or I-CreI (generally between 2.5 and 50 nM) were mixed with 5 nM DNA in 20 mM tris.HCl, 100 ug/mL bovine serum albumin, pH 8.0 (for I-SceI variants) or pH 9.0 (for I-CreI variants) in a total volume of 10 ìL. After incubation for 20 minutes at 37° C., 1 ìL of 10× DNA retardation gel loading buffer (Invitrogen) was added and the samples were loaded onto a 1 mm thick DNA retardation gel (Invitrogen). Electrophoresis was performed for 45 minutes at 175 Volts in 0.5× TBE buffer (Invitrogen). Gels were stained for 45 minutes with SYBR Gold stain (Invitrogen) and visualized by UV illumination. Densitometry was performed on a digital image of the gel to determine the relative intensities of the bands corresponding to bound and unbound DNA. Intensities of bound and unbound DNA were used to determine the concentrations of bound and free enzyme at each initial concentration. […] Binding affinities (dissociation constants, Kd) were determined by plotting the concentration of bound enzyme on the y-axis and the concentration of free enzyme on the x-axis for each data point and fitting the data to a rectangular hyperbola using standard nonlinear least-squares fitting procedures, using the equation y=([DNA]*x)/(Kd+x).

I-SceI D44A/D145N = biological target: T4, I-SceI D44A/D145N (UniProt P03882 P03882:1-235, D44A,D145N); test: EMSA; 5 nM DNA, 20 mM Tris pH 8.0, 37 C; conditions: tags: 6xHis N-terminal with TEV site; EcoRI/BamHI overhangs
T4 sequence: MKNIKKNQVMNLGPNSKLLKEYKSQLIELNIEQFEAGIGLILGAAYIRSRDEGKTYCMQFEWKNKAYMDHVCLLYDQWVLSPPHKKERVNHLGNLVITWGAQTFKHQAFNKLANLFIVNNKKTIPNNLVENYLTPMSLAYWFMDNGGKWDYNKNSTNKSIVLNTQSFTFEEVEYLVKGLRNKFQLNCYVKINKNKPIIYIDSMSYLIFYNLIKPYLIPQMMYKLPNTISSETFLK
Procedure: as §1

B1: 80-bp I-SceI site duplex (dsDNA)
DNA 1: GAATTCTGGTTCCGAAGCCTGTCCTGCACGCTAGGGATAACAGGGTAATAATATATGAATCCAAACTAGAGCGGGGCTCT
DNA 2: AGAGCCCCGCTCTAGTTTGGATTCATATATTATTACCCTGTTATCCCTAGCGTGCAGGACAGGCTTCGGAACCAGAATTC
- Kd [1]: 13 nM
- Kd (I-SceI (wild type)): 62 nM

B2: pSCI insert with I-SceI and I-CreI sites (142 bp) (dsDNA)
DNA 1: AATTCTGGTTCCGAAGCCTGTCCTGCACGCTAGGGATAACAGGGTAATAATATATGAATCCAAACTAGAGCGGGGCTCTTGACGTTTGGCTCAAAACGTCGTGAGACAGTTTGGTCAGTTGTAAATATCTAATATTCCAATG
DNA 2: GATCCATTGGAATATTAGATATTTACAACTGACCAAACTGTCTCACGACGTTTTGAGCCAAACGTCAAGAGCCCCGCTCTAGTTTGGATTCATATATTATTACCCTGTTATCCCTAGCGTGCAGGACAGGCTTCGGAACCAG
- binding result (I-CreI D20N/Q47A): binds
- binding result (I-SceI D44A/D145N): binds
